Laboratory results reported in the supplement of paper PMC10724198.
± gives the standard deviation of the averaged measurements.

Tested on: Saccharomyces cerevisiae
Assay: protein stability index of tFT-peptide fusion (C-terminal peptide) (PSI (0-1 scale)); higher = more stable (slower turnover)
Settings: genetic background: wild type; temperature: 30 C
Method: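 Multiplexed protein stability (MPS) profiling in S. cerevisiae. Random 12-aa peptides (tFT-X12 library) are fused to the C-terminus of a sfGFP-mCherry tandem fluorescent timer, after mCherry and a GGGS linker. Cells are FACS-sorted into 8 mCherry/sfGFP bins and deep-sequenced. The protein stability index (PSI) is the read-weighted bin average, scaled from 0 (unstable) to 1 (stable). Only peptides with >10 reads are reported; cells were grown at 30 °C in SC-His with glucose.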
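Note: PSI is a weighted mean of sequencing reads over stability bins, variants kept only with over 10 reads, mCherry proximal and sfGFP distal, peptide attached via GGGS linker.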

Sequence	protein stability index
YDVLGLFPICKW	0.729 ± 0.06
YSVSAALPREFR	0.773 ± 0.062
SASVLVLRRSSP	0.732 ± 0.074
RTTKRKIKIIGI	0.709 ± 0.013
PINIERNKRIKR	0.733 ± 0.021
MVWCVSRGEGPV	0.762 ± 0.037
PPLPPLPVPPTL	0.738 ± 0.11
RAAQVFPHVLPR	0.6726 ± 0.0022
PSPSSPLPPPPP	0.794 ± 0.035
SHLKEHREEELE	0.647 ± 0.0097
SLLLPPPPPSPH	0.731 ± 0.042
GFSRLTPDQRQK	0.7373 ± 0.0063
PPALHRPFPPPP	0.666 ± 0.016
VGEVAGRWCGRG	0.7 ± 0.025
WGGEVGQLLELW	0.714 ± 0.048
CCLGVFFGVGGL	0.772 ± 0.12
RLPPPPPPSPHL	0.711 ± 0.054
PPCHPPPTTSEK	0.677 ± 0.032
DGRTYGHYKVVA	0.697 ± 0.027
GAYKVPSYGINY	0.695 ± 0.021
APTGGTNVRRPE	0.726 ± 0.024
CLFSFGPLAVNI	0.6 ± 0.0079
KKKTKNGKEKRR	0.7 ± 0.019
GSLGVWKGCGEG	0.652 ± 0.018
RVVPSVSVWLPP	0.663 ± 0.052

Sequence	protein stability index
YLPLPPLTPPPR	0.776 ± 0.036
KKKKKKVRYIRI	0.671 ± 0.046
VGRENNENREEE	0.629 ± 0.021
VLCIYKLSQVRL	0.654 ± 0.049
KKKKTQKKKTKQ	0.668 ± 0.019
RSRHRRQDGKKT	0.64 ± 0.029
LGFQSRTTRCCG	0.6685 ± 0.0014
GVCVLGGWSGFW	0.758 ± 0.062
LPAPPPHPLSPV	0.7161 ± 0.0063
PPTPRPHPPSRP	0.758 ± 0.022
RTHLVRRHGEAR	0.697 ± 0.02
TSKPGLQIPRRE	0.747 ± 0.047
KKKQKYRREEKE	0.724 ± 0.051
YPPGSPVPPGLP	0.671 ± 0.0076
AQFFQALATYPI	0.677 ± 0.022
FGGLLFTRFGWE	0.802 ± 0.056
LLDVFFPRFFCH	0.611 ± 0.078
SLRKVTEKDKRT	0.677 ± 0.064
GLGVPWVRWGWV	0.632 ± 0.019
VRLRGEGCGWGG	0.7158 ± 0.0022
VVLFFGPRWSLG	0.624 ± 0.068
RDSMVFEVRYSQ	0.698 ± 0.1
KKKKKKTKKKNK	0.719 ± 0.016
SCLSLALYASHF	0.56 ± 0.033
KYIKNKKEKTEE	0.701 ± 0.017

Sequence	protein stability index
SFWNLFAGWYVI	0.685 ± 0.03
CLHLDQAACVGS	0.695 ± 0.1
PFPPRPPSDRIR	0.659 ± 0.088
KIVKNQKKKKQR	0.732 ± 0.019
GLLPTPPASLLY	0.6888 ± 0.00085
SVALPLRQTPLH	0.667 ± 0.047
SFSSAVIPPFAP	0.728 ± 0.053
GGIGYRRQAAQA	0.673 ± 0.068
LTGHVGNMWDAA	0.86 ± 0.025
LPLPPASRSAPP	0.589 ± 0.028
FPVLFSCGYFPL	0.792 ± 0.04
SRGLVVYMDALR	0.692 ± 0.028
SKSRGVIVTVMV	0.5681 ± 0.00072
LSLPHPSPLSFS	0.718 ± 0.038
VFAVGRPGRGVV	0.648 ± 0.014
MYLLSFRALGSS	0.54 ± 0.0098
LSVGPIWFSCQA	0.605 ± 0.023
SWGACVDYLGWS	0.754 ± 0.03
PPPPPPSLPYLL	0.771 ± 0.042
DLSNVITKMFVI	0.6542 ± 0.0036
AGAATGAGGLQG	0.672 ± 0.037
RRASTVRVPTCW	0.701 ± 0.019
PGTATRAPQLIP	0.727 ± 0.033
RTLYAGVVGGNG	0.734 ± 0.086
PRSTWPFRLFVR	0.531 ± 0.053

Sequence	protein stability index
SHVPLAKLSLFP	0.756 ± 0.024
SPDHATYHNPAR	0.76 ± 0.074
CDRNLSYGAGSV	0.705 ± 0.049
PRPAPHTGPSPG	0.613 ± 0.029
GDLKWVGLGVQR	0.687 ± 0.03
HARFRPRKAVGD	0.67 ± 0.042
GTRWPLVAPRER	0.7254 ± 0.0045
AEAFFRIVRTVR	0.721 ± 0.034
RVGGRVSGGGGL	0.654 ± 0.027
KKKKGKKRRTRK	0.72 ± 0.041
PPPHLPPPPPTQ	0.658 ± 0.059
KIVCTLGPAFAR	0.672 ± 0.051
LRRPSPPTPSPP	0.86 ± 0.2
GGGSGKSGNLYS	0.687 ± 0.06
AAGGASRHLSGS	0.71 ± 0.09
CVAAISGESLLR	0.667 ± 0.021
HRKNKYKRKTTK	0.676 ± 0.05
DSIVHSFYIPLL	0.666 ± 0.048
EHLYIYGKDKWK	0.602 ± 0.025
ERKNRKIRREKK	0.774 ± 0.16
LGKIYPFYSILL	0.7038 ± 0.002
LLPPPVFPPLSP	0.753 ± 0.013
PFPPTPVRRVPL	0.715 ± 0.025
